The text below walks through data of US20120316071A1 (published 2012).

In assay [1] the target is T1, rHuman P-Cadherin/Fc Chimera, CF (R&D Systems Cat#861-PC) (human, UniProt P22223 108-654).
T1 construct: Bought recombinant protein; Fc part of the bought chimera not given
Kind of assay: ECL Multispot (MSD), antigen spotted; Fab 50 (µM); blank 386.

The target of assay [2] is T2, rHuman CD44/Fc Chimera, CF (R&D Systems Cat#3660-CD) (human, UniProt P16070 21-220).
T2 construct: Bought recombinant protein; Fc part of the bought chimera not given
The description is as above.

Assay [3] concerns the target T3, rHuman ErbB2/Fc Chimera, CF (R&D Systems Cat#1129-ER) (human, UniProt P04626 23-652).
T3 construct: Bought Fc chimera; also called human epidermal growth factor 2 receptor; Fc part of the bought chimera not given
Kind of assay: Multispot ECL (MSD) titration; antigen spotted on plate; Fab 930 nM; blank spot 1206.

Assay [4] concerns the target T4, rHuman IGF-1 sR (IGF-1 sR), CF (R&D Systems Cat#391-GR) (human, UniProt P08069 31-932).
T4 construct: Bought soluble receptor; also called insulin-like growth factor-1 soluble receptor
Described as above.

Assay [5] deals with T5, rHuman P-Cadherin/Fc Chimera, CF (R&D Systems Cat#861-PC) (human, UniProt P22223 108-654).
T5 construct: Bought Fc chimera; Fc part of the bought chimera not given
Described as above.

For assay [6], the target named is T6, rHuman Notch-1/Fc Chimera, CF (R&D Systems Cat#3647-TK) (human, UniProt P46531 19-526).
T6 construct: Bought Fc chimera; Fc part of the bought chimera not given
Described as above.

Assay [7] addresses T7, rHuman Erythropoietin R/Fc Chimera, CF (R&D Systems Cat#963-ER) (human, UniProt P19235 25-250).
T7 construct: Bought Fc chimera; also called EPO R/Fc; EPO R; Fc part of the bought chimera not given
T7 sequence (looked up): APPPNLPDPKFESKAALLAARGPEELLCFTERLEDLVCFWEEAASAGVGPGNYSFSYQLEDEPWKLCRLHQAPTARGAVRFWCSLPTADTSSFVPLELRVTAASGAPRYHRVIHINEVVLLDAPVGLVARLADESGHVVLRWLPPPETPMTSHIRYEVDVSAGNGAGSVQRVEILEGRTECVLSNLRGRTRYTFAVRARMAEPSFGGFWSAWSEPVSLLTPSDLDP
The description is as above.

Assay [8] has as its target T8, rHuman CD44/Fc Chimera, CF (R&D Systems Cat#3660-CD) (human, UniProt P16070 21-220).
T8 construct: Bought Fc chimera; Fc part of the bought chimera not given
The assay is described as above.

For assay [9], the target named is T9, Recombinant Human DLL4 (R&D Systems Cat#1506-D4/CF) (human, UniProt Q9NR61 27-524).
T9 construct: Bought recombinant protein; also called delta-like protein 4; rHuman DLL4
The assay is described as above.

The target in assay [10] is T10, rHuman ErbB2/Fc Chimera, CF (R&D Systems Cat#1129-ER) (human, UniProt P04626 23-652).
T10 construct: Bought recombinant protein; Fc part of the bought chimera not given
Kind of assay: ECL multispot (MSD) assay, spotted antigen; Fab 20.00 (head prints uM).

Assay [11] addresses T11, rHuman IGF-1 sR, CF (R&D Systems Cat#391-GR) (human, UniProt P08069 31-932).
T11 construct: Bought soluble receptor; The column head prints only 'IGF-1'; also called insulin-like growth factor-1 soluble receptor
Described as above.

In assay [12] the target is T12, rHuman Erythropoietin R/Fc Chimera, CF (R&D Systems Cat#963-ER) (human, UniProt P19235 25-250).
T12 construct: Bought recombinant protein; also called EPO R; EPO R/Fc; Fc part of the bought chimera not given
T12 sequence (looked up): T7 sequence (looked up)
The assay is described as above.

The target in assay [13] is T13, rHuman EGF R/Fc Chimera, CF (R&D Systems Cat#344-ER) (human, UniProt P00533 25-645).
T13 construct: Bought recombinant protein; Fc part of the bought chimera not given
The assay is described as above.

Assay [14] deals with T14, rHuman P-Cadherin/Fc Chimera, CF (R&D Systems Cat#861-PC) (human, UniProt P22223 108-654).
T14 construct: Bought recombinant protein; Fc part of the bought chimera not given
Described as above.

Assay [15] has as its target T15, rHuman CD44/Fc Chimera, CF (R&D Systems Cat#3660-CD) (human, UniProt P16070 21-220).
T15 construct: Bought recombinant protein; Fc part of the bought chimera not given
The assay is described as above.

Assay [16] concerns the target T16, rHuman Notch-1/Fc Chimera, CF (R&D Systems Cat#3647-TK) (human, UniProt P46531 19-526).
T16 construct: Bought recombinant protein; Fc part of the bought chimera not given
The assay is described as above.

Assay [17] deals with T17, Recombinant Human DLL4 (R&D Systems Cat#1506-D4/CF) (human, UniProt Q9NR61 27-524).
T17 construct: Bought recombinant protein; also called delta-like protein 4
The assay is described as above.

In assay [18] the target is T18, rHuman HGF R/c-MET/Fc Chimera, CF (R&D Systems Cat#358-MT/CF) (human, UniProt P08581 25-932).
T18 construct: Bought recombinant protein; also called HGF R/Fc; Fc part of the bought chimera not given
The assay is described as above.

Assay [19] concerns the target T19, rHuman CD44/Fc Chimera, CF (R&D Systems Cat#3660-CD) (human, UniProt P16070 21-220).
T19 construct: Bought Fc chimera; Fc part of the bought chimera not given
Briefly: MSD Multispot ECL, antigen spotted on plate, Fab at 3.8 nM; blank spot 198.

Changes are numbered by the printed parent chain. In names and notes the source's numbering stands.

T18 sequence (P08581 25-932, change not shown): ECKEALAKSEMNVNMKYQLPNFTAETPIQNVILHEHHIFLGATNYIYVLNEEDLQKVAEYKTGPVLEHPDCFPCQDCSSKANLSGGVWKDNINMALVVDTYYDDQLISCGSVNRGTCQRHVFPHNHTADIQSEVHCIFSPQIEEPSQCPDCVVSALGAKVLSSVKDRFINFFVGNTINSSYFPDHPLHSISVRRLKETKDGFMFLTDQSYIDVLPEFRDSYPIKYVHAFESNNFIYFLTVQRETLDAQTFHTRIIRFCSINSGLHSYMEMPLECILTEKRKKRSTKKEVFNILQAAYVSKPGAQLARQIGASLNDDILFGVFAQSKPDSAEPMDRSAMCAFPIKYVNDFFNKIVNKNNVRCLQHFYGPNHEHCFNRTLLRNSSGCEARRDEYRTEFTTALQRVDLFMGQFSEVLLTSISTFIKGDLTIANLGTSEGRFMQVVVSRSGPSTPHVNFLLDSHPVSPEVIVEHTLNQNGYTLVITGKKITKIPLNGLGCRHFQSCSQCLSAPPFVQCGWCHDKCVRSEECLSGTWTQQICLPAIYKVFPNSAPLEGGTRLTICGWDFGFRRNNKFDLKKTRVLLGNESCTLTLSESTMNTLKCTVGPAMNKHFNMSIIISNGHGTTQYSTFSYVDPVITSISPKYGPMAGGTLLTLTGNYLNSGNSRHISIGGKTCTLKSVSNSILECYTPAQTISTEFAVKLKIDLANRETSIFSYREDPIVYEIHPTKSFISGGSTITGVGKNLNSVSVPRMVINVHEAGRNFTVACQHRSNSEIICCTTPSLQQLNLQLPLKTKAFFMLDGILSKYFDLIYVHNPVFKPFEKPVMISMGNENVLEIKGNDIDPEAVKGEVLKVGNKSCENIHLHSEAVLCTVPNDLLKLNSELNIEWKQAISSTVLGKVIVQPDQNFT

B1: Fab VH1-46_IGHD6-6*01_IGHJ1*01 S102A/S103P/S104F (APF) & L6_IGKJ1*01 (Fab, V domains shown)
VH: QVQLVQSGAEVKKPGASVKVSCKASGYTFTSYYMHWVRQAPGQGLEWMGIINPSGGSTSYAQKFQGRVTMTRDTSTSTVYMELSSLRSEDTAVYYCAREEYAPFSAEYFQHWGQGTLVTVSS
VL: not shown
notes: Tested as a Fab made in E. coli: VH cloned in Plasmid A (CH1 constant region, His6 and Flag tags), VL in Plasmid C (kappa constant region); also called H:APF & L:wt; APF triple mutant
For the molecule B1, the ECL signal in assay [1] came to 652; in assay [2] it was 557.

B2: Fab VH1-46_IGHD6-13*01_IGHJ4*01 & O1_IGKJ1*01 (Fab, V domains shown)
VH: B1 VH with E100G, A102S, P103S, F104S, S105W, A106Y, E107D, Q110D, H111Y
VL: DIVMTQTPLSLPVTPGEPASISCRSSQSLLDSDDGNTYLDWYLQKPGQSPQLLIYTLSYRASGVPDRFSGSGSGTDFTLKISRVEAEDVGVYYCMQRIEFPSWTFGQGTKVEIKR
notes: Germline library Fab expressed in E. coli; VH was cloned into Plasmid A (CH1 constant region, His6 and Flag tags); The kappa VL was cloned into Plasmid C (kappa CL)
Take B2: the ECL signal was found to be 2220 in assay [3]; 1920 in [4]; 2440 in assay [5]; 2210 in assay [6]; 3010 in assay [7]; 1920 in assay [8]. For the same molecule, in [9], the ECL signal was 8160.

B3: Fab VH5-51_IGHD5-18*01>3_IGHJ4*01 G100K/G104T & V3-4_IGLJ1*01 (Fab, V domains shown)
VH: EVQLVQSGAEVKKPGESLKISCKGSGYSFTSYWIGWVRQMPGKGLEWMGIIYPGDSDTRYSPSFQGQVTISADKSISTAYLQWSSLKASDTAMYYCARRKYSYTYDYFDYWGQGTLVTVSS
VL: QTVVTQEPSFSVSPGGTVTLTCGLSSGSVSTSYYPSWYQQTPGQAPRTLIYSTNTRSSGVPDRFSGSILGNKAALTITGAQADDESDYYCVLYMGSGISYVFGTGTKVTVL
notes: Tested as a Fab; The constant parts are the same as for the parent Fab (CH1 with His6/Flag tags, lambda CL); also called KT double mutant; H:KT
For the molecule B3, the ECL signal/noise ratio was found to be 1.2 in assay [10]; 1.1 in [11]; 1.1 in assay [12]; 1.1 in assay [13]; 1.1 in [14]; 1.1 in assay [15]. Moreover, the ECL signal/noise ratio in assay [16] came out at 1.2; in [17], 157; in assay [18] it was 0.9.

B4: Fab VH6-1_IGHD3-3*01_IGHJ4*01 & V4-3_IGLJ4*01 (Fab, V domains shown)
VH: QVQLQQSGPGLVKPSQTLSLTCAISGDSVSSNSAAWNWIRQSPSRGLEWLGRTYYRSKWYNDYAVSVKSRITINPDTSKNQFSLQLNSVTPEDTAVYYCAREYYDFWSGYYTDYFDYWGQGTLVTVSS
VL: QPVLTQPTSLSASPGASARLTCTLRSGINLGSYRIFWYQQKPESPPRYLLSYYSDSSKHQGSGVPSRFSGSKDASSNAGILVISGLQSEDEADYYCMIWHSSASFVFGGGTQLIIL
notes: Tested as a purified germline Fab made in E. coli; The VH was cloned into plasmid A (CH1 constant region, His6 and Flag tags) and the lambda VL into plasmid E (lambda CL)
The molecule B4 gave an ECL signal in assay [19] of 419.
